# From patent US20180305450A1 (AstraZeneca / MedImmune, published 2018)
# Numbering of substitutions follows the chain as printed. Numbers in names are those of the source.
# T1: recombinant biotinylated rat PAR2 extracellular residues 1-75, N-terminal AviTag, C-terminal Flag and poly … (rat, UniProt Q63645 26-75, not fully specified; biotin on the AviTag (enzymatic biotinylation))
# T1 construct: range 1-75; not shown: N-terminal AviTag (Avidity LLC); C-terminal Flag and poly Histidine tags
# T1 chain (looked up): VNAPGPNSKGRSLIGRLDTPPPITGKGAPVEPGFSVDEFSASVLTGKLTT
# B1: PaB670142 IgG (antibody, V domains shown)
# VH: EVQLLESGGGLVQPGGSLRLSCAASGFTFSSYAMNWVRQAPGKGLEWVSTISYSGSLISYADSVKGRFTISRDNSKNTLYLQMNSLRAEDTAVYYCARIHHDPMDVWGQGTLVTVSS
# VL: SIELTQPPSVSVSPGQTASITCSGDNLGKKYVQWYQQKPGQSPVLVIYDDSNRPSGIPERFSGSNSGNTATLTISGTQAMDEADYYCQTWDGNPTHGETNVFGGGTKLTVL
# notes: IgG1-TM (L234F, L235E, P331S), human lambda light chain
# B2: PaB670143 IgG (antibody, V domains shown)
# VH: B1 VH with S54H, S56H, L57H, V64H, K65H, G66H, H100N, H101N
# VL: B1 VL
# notes: as for B1
# B3: PaB670162 IgG (antibody, V domains shown)
# VH: B1 VH with S54H, S56H, L57H, V64H, K65H, G66H, H100N, H101N
# VL: B1 VL with Q88H, N93H, P94H, H96T, V101H
# notes: as for B1
# B4: PaB670048 Fab (Fab, V domains shown)
# VH: B1 VH with V106H
# VL: B1 VL with H96T
# notes: Fab; also called ZZ1KX4-E11
# B5: PaB670160 IgG (antibody, V domains shown)
# VH: B1 VH with H100N
# VL: B1 VL with Q88H, N93H, P94H, H96T, V101H
# notes: as for B1
# B6: PaB670152 IgG (antibody, V domains shown)
# VH: B1 VH
# VL: B1 VL with Q88H, G92H, N93H, P94H, H96T, T99H
# notes: as for B1
# B7: PaB670161 IgG (antibody, V domains shown)
# VH: B1 VH
# VL: B1 VL with Q88H, N93H, P94H, H96T, V101H
# notes: as for B1
# B8: PaB670146 IgG (antibody, V domains shown)
# VH: B1 VH with H100N
# VL: B1 VL with Q88H, D91H, G92H, N93H, T99H
# notes: as for B1
# B9: PaB670156 IgG (antibody, V domains shown)
# VH: B1 VH with H100N
# VL: B1 VL with N93H, P94H, T95H, H96T, V101H
# notes: as for B1
# B10: PaB670151 IgG (antibody, V domains shown)
# VH: B1 VH with H100N
# VL: B1 VL with Q88H, G92H, N93H, P94H, H96T, T99H
# notes: as for B1
# B11: PaB670158 IgG (antibody, V domains shown)
# VH: B1 VH with S54H, S56H, L57H, V64H, K65H, G66H, H100N, H101N
# VL: B1 VL with N93H, P94H, T95H, H96T, V101H
# notes: as for B1
# B12: PaB670157 IgG (antibody, V domains shown)
# VH: B1 VH
# VL: B1 VL with N93H, P94H, T95H, H96T, V101H
# notes: as for B1
# B13: PaB670153 IgG (antibody, V domains shown)
# VH: B1 VH with S54H, S56H, L57H, V64H, K65H, G66H, H100N, H101N
# VL: B1 VL with Q88H, G92H, N93H, P94H, H96T, T99H
# notes: as for B1
# B14: PaB670148 IgG (antibody, V domains shown)
# VH: B1 VH with S54H, S56H, L57H, V64H, K65H, G66H, H100N, H101N
# VL: B1 VL with Q88H, D91H, G92H, N93H, T99H
# notes: as for B1
# B15: PaB670144 IgG (antibody, V domains shown)
# VH: B1 VH with S54H, S56H, L57H, V64H, K65H, G66H, H100N
# VL: B1 VL
# notes: as for B1
# Key:
# [1] = target: T2, recombinant biotinylated human PAR2 extracellular domain (residues 1-75), N-terminal AviTag, C-terminal Flag … (human, UniProt P55085 26-75, biotin on the AviTag (enzymatic biotinylation)); test: HTRF competition with Dylight650-Par0067 IgG, pH 6.0, IgG
# T2 construct: also called Bio-human-PAR2 ECD; human PAR2 ECD; not shown: N-terminal AviTag (Avidity LLC); C-terminal Flag and poly Histidine tags
# Experimental: (§1) Parent Par0067 IgG (used as a reference/control in all assays) was pre-diluted to give a 2000 nM stock in each of the two different pH assay buffers (in order to give a top final assay IgG concentration of 500 nM). All test, or other reference/control IgG were tested from a top final assay concentration of ¼ of the neat undiluted sample (i.e. no pre-dilution step was performed). Duplicate 11 point 1:3 serial dilutions then were prepared on 384 well polypropylene Greiner plates in each of the two assay buffers (pH 7.4 & 6.0). 5 μl per well was transferred from the relevant pH IgG dilution plate to the corresponding assay plate (pH 7.4 and pH 6.0). 5 ul of the appropriate pH assay buffer was added to the total and non-specific wells.
# (§2) For multipoint dose response curves % Specific Binding values were plotted versus test purified antibody concentration (scFv or IgG). IC₅₀ values were determined via a sigmoidal dose response inhibition variable slope curve fit (4 parameter logistic equation) using Graphpad Prism Software.
# [2] = target: T2, recombinant biotinylated human PAR2 …; test: HTRF competition with Dylight650-Par0067 IgG, IgG
# Experimental: as §1, §2
# [3] = target: T2, recombinant biotinylated human PAR2 …; test: HTRF competition with Dylight650-Par0067 IgG, pH 7.4, IgG
# Experimental: as §1, §2
# [4] = target: T1, recombinant biotinylated rat PAR2 …; test: Biacore SPR 25 C, pH 6.0
# Experimental: (§3) The experiments were carried out using recombinant human, rat and cynomolgus PAR2 with an N-terminal Avi tag and C-terminal Flag-His tags.
# (§4) Streptavidin was covalently immobilised to a C1 chip surface using standard amine coupling techniques at a concentration of 4 μg/ml in 10 mM Sodium acetate pH 4.5. A final streptavidin surface of approximately 30-100 RUs was achieved. Recombinant biotinylated PAR2 species (produced in-house) were titrated onto the streptavidin chip surface at 4 μg/ml in HBS-EP+ buffer to enable Fab binding at saturation (Rₘₐₓ). This low level of analyte binding ensured minimal mass transport effects.
# (§5) The anti-PAR2 Fabs were serially diluted (0.39 nM-25 nM) in HBS-EP+ buffer pH 7.4 or MES-BS-EP+ pH 6.0 buffer or in MES-BS-EP+ pH 5.6 buffer and flowed over the chip at 50 μl/min, with 3 minutes association and up to 30 minutes dissociation. Multiple buffer-only injections were made under the same conditions to allow for double reference subtraction of the final sensorgram sets, which were analysed using the BiaEval software (version 2.0.1). The chip surface was fully regenerated with pulses of 4 M MgCl₂.
# [5] = target: T2, recombinant biotinylated human PAR2 …; test: Biacore SPR 25 C, pH 6.0
# Experimental: as §3, §4, §5
# [6] = target: T1, recombinant biotinylated rat PAR2 …; test: Biacore SPR 25 C, pH 7.4
# Experimental: as §3, §4, §5
# [7] = target: T2, recombinant biotinylated human PAR2 …; test: Biacore SPR 25 C, pH 7.4
# Experimental: as §3, §4, §5
# [8] = target: T1, recombinant biotinylated rat PAR2 …; test: Biacore SPR 25 C, pH 7.4
# Experimental: as §3, §4, §5
# [9] = target: T2, recombinant biotinylated human PAR2 …; test: Biacore SPR 25 C, pH 7.4; remark: listed apart in the source
# Experimental: as §3, §4, §5
# [10] = target: T1, recombinant biotinylated rat PAR2 …; test: Biacore SPR 25 C, pH 6.0
# Experimental: as §3, §4, §5
# [11] = target: T2, recombinant biotinylated human PAR2 …; test: Biacore SPR 25 C, pH 6.0; remark: listed apart in the source
# Experimental: as §3, §4, §5
# T2 sequence (P55085 26-75): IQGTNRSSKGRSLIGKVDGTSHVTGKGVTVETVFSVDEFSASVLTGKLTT
binder,measurement,setting,value
B1,IC50,[1],67.1 nM
same,Fold IC50 (pH 6.0 v pH 7.4),[2],14 fold
same,Fold IC50 pH 7.4 (Variant v Par0067),[2],5.7 fold
same,IC50,[3],4.8 nM
B2,IC50,[1],40 nM
same,Fold IC50 (pH 6.0 v pH 7.4),[2],11.8 fold
same,Fold IC50 pH 7.4 (Variant v Par0067),[2],4 fold
same,IC50,[3],3.4 nM
B3,IC50,[1],906 nM
same,Fold IC50 (pH 6.0 v pH 7.4),[2],79.5 fold
same,Fold IC50 pH 7.4 (Variant v Par0067),[2],13.7 fold
same,IC50,[3],11.4 nM
B4,Kd,[4],4.48 nM
same,koff,[4],0.0217 s⁻¹
same,kon,[4],4.84e+06 M⁻¹ s⁻¹
same,Kd,[5],2.49 nM
same,koff,[5],0.00458 s⁻¹
same,kon,[5],1.84e+06 M⁻¹ s⁻¹
same,Kd,[6],0.435 nM
same,koff,[6],0.00325 s⁻¹
same,kon,[6],7.46e+06 M⁻¹ s⁻¹
same,Kd,[7],0.104 nM
same,koff,[7],0.00058 s⁻¹
same,kon,[7],5.59e+06 M⁻¹ s⁻¹
same,Kd,[8],0.586 nM
same,koff,[8],0.00307 s⁻¹
same,kon,[8],5.24e+06 M⁻¹ s⁻¹
same,Kd,[9],0.124 nM
same,koff,[9],0.000519 s⁻¹
same,kon,[9],4.2e+06 M⁻¹ s⁻¹
same,Kd,[10],5.12 nM
same,koff,[10],0.0205 s⁻¹
same,kon,[10],4e+06 M⁻¹ s⁻¹
same,Kd,[11],2.57 nM
same,koff,[11],0.00497 s⁻¹
same,kon,[11],1.94e+06 M⁻¹ s⁻¹
B5,IC50,[1],634 nM
same,Fold IC50 (pH 6.0 v pH 7.4),[2],37.5 fold
same,Fold IC50 pH 7.4 (Variant v Par0067),[2],20.2 fold
same,IC50,[3],16.9 nM
B6,IC50,[1],6600 nM
same,Fold IC50 (pH 6.0 v pH 7.4),[2],15.1 fold
same,Fold IC50 pH 7.4 (Variant v Par0067),[2],526 fold
same,IC50,[3],439 nM
B7,IC50,[1],1900 nM
same,Fold IC50 (pH 6.0 v pH 7.4),[2],39.6 fold
same,Fold IC50 pH 7.4 (Variant v Par0067),[2],57.4 fold
same,IC50,[3],47.9 nM
B8,IC50,[1],784 nM
same,Fold IC50 (pH 6.0 v pH 7.4),[2],8.5 fold
same,Fold IC50 pH 7.4 (Variant v Par0067),[2],110 fold
same,IC50,[3],91.9 nM
B9,IC50,[1],190 nM
same,Fold IC50 (pH 6.0 v pH 7.4),[2],27.2 fold
same,Fold IC50 pH 7.4 (Variant v Par0067),[2],8.4 fold
same,IC50,[3],7 nM
B10,IC50,[1],796 nM
same,Fold IC50 (pH 6.0 v pH 7.4),[2],11.5 fold
same,Fold IC50 pH 7.4 (Variant v Par0067),[2],83.2 fold
same,IC50,[3],69.5 nM
B11,IC50,[1],477 nM
same,Fold IC50 (pH 6.0 v pH 7.4),[2],69.8 fold
same,Fold IC50 pH 7.4 (Variant v Par0067),[2],8.2 fold
same,IC50,[3],6.8 nM
B12,IC50,[1],932 nM
same,Fold IC50 (pH 6.0 v pH 7.4),[2],59 fold
same,Fold IC50 pH 7.4 (Variant v Par0067),[2],18.9 fold
same,IC50,[3],15.8 nM
B13,IC50,[1],1640 nM
same,Fold IC50 (pH 6.0 v pH 7.4),[2],17.6 fold
same,Fold IC50 pH 7.4 (Variant v Par0067),[2],111 fold
same,IC50,[3],93 nM
B14,IC50,[1],845 nM
same,Fold IC50 (pH 6.0 v pH 7.4),[2],17.4 fold
same,Fold IC50 pH 7.4 (Variant v Par0067),[2],58.1 fold
same,IC50,[3],48.5 nM
B15,IC50,[1],565 nM
same,Fold IC50 (pH 6.0 v pH 7.4),[2],19.5 fold
same,Fold IC50 pH 7.4 (Variant v Par0067),[2],34.7 fold
same,IC50,[3],29 nM
